# US20140087995A1 (published 2014)
# Numbered stars: 1 amine (or outer) side, 2 acyl side, 3 side chain; on linkers, the order of the positions; unused ones are H or OH. Bridge positions count the residues as written; N and C are the ends. Side chains are listed from the residue outwards. Ends that are not written are not given here. * marks the point of attachment. C20 diacid = O=C(O)CCCCCCCCCCCCCCCCCCC(=O)*; γGlu = O=C(O)[C@H](CCC(=O)[*:2])N[*:1]; AEEA = NCCOCCOCC(=O)O
# T1: human amylin receptor (amylin 3(a) receptor: human calcitonin receptor with RAMP-3) (human, UniProt P30988 25-474; O60896 24-148)
# T1 construct: whole, on cells; also called hAmylin-R; hAmylinR
# T1 sequence (looked up) 1: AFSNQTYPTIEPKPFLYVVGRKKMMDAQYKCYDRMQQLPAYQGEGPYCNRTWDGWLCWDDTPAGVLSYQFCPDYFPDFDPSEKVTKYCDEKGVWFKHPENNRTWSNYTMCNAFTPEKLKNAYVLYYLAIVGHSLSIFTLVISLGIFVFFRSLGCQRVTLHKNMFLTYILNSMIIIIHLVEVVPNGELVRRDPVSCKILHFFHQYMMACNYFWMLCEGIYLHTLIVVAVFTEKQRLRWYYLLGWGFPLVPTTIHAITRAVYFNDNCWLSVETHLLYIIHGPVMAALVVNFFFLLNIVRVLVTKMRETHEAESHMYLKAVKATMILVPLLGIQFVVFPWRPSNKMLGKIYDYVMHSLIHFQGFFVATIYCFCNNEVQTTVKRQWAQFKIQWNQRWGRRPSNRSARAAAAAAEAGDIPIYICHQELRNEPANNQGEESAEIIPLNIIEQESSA
# T1 sequence (looked up) 2: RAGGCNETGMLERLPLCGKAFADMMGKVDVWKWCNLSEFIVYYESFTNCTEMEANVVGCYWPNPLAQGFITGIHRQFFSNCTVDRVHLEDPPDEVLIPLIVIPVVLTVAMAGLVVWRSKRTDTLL
# Biological target: T1, human amylin receptor (amylin 3(a) …)
# Assay: SPA displacement of 125I-rat amylin, hAmylin 3(a) receptor membranes
# How it was run: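 Cell membranes were prepared by homogenisation in Na-HEPES/EDTA buffer, pH 7.4, and stored at −80° C. They were then coupled to SPA beads at 35 ng/μL final and exposed to compounds in assay buffer containing CaCl2, MgCl₂, OA and Tween20. After 120 min at 25° C, plates were counted and IC₅₀ derived.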
row,Binder,IC50
1,"K([AEEA-γGlu-C20 diacid])CNTATCATQRLARFLRHSSPNFGAIPSSTNVGSNTY-NH2 (disulfide 2-7; N-terminus assumed; SMILES CC[C@H](C)[C@H](NC(=O)[C@H](C)NC(=O)CNC(=O)[C@H](Cc1ccccc1)NC(=O)[C@H](CC(N)=O)NC(=O)[C@@H]1CCCN1C(=O)[C@H](CO)NC(=O)[C@H](CO)NC(=O)[C@H](Cc1c[nH]cn1)NC(=O)[C@H](CCCNC(=N)N)NC(=O)[C@H](CC(C)C)NC(=O)[C@H](Cc1ccccc1)NC(=O)[C@H](CCCNC(=N)N)NC(=O)[C@H](C)NC(=O)[C@H](CC(C)C)NC(=O)[C@H](CCCNC(=N)N)NC(=O)[C@H](CCC(N)=O)NC(=O)[C@@H](NC(=O)[C@H](C)NC(=O)[C@@H]1CSSC[C@H](NC(=O)[C@@H](N)CCCCNC(=O)COCCOCCNC(=O)CC[C@H](NC(=O)CCCCCCCCCCCCCCCCCCC(=O)O)C(=O)O)C(=O)N[C@@H](CC(N)=O)C(=O)N[C@@H]([C@@H](C)O)C(=O)N[C@@H](C)C(=O)N[C@@H]([C@@H](C)O)C(=O)N1)[C@@H](C)O)C(=O)N1CCC[C@H]1C(=O)N[C@@H](CO)C(=O)N[C@@H](CO)C(=O)N[C@H](C(=O)N[C@@H](CC(N)=O)C(=O)N[C@H](C(=O)NCC(=O)N[C@@H](CO)C(=O)N[C@@H](CC(N)=O)C(=O)N[C@H](C(=O)N[C@@H](Cc1ccc(O)cc1)C(N)=O)[C@@H](C)O)C(C)C)[C@@H](C)O, also called 82; compound 82)",0.636 nM
2,"K([AEEA-γGlu-C20 diacid])CNTATCATQRLANFLRHSSPNFGAIPSSTNVGSRTY-NH2 (disulfide 2-7; N-terminus assumed; SMILES CC[C@H](C)[C@H](NC(=O)[C@H](C)NC(=O)CNC(=O)[C@H](Cc1ccccc1)NC(=O)[C@H](CC(N)=O)NC(=O)[C@@H]1CCCN1C(=O)[C@H](CO)NC(=O)[C@H](CO)NC(=O)[C@H](Cc1c[nH]cn1)NC(=O)[C@H](CCCNC(=N)N)NC(=O)[C@H](CC(C)C)NC(=O)[C@H](Cc1ccccc1)NC(=O)[C@H](CC(N)=O)NC(=O)[C@H](C)NC(=O)[C@H](CC(C)C)NC(=O)[C@H](CCCNC(=N)N)NC(=O)[C@H](CCC(N)=O)NC(=O)[C@@H](NC(=O)[C@H](C)NC(=O)[C@@H]1CSSC[C@H](NC(=O)[C@@H](N)CCCCNC(=O)COCCOCCNC(=O)CC[C@H](NC(=O)CCCCCCCCCCCCCCCCCCC(=O)O)C(=O)O)C(=O)N[C@@H](CC(N)=O)C(=O)N[C@@H]([C@@H](C)O)C(=O)N[C@@H](C)C(=O)N[C@@H]([C@@H](C)O)C(=O)N1)[C@@H](C)O)C(=O)N1CCC[C@H]1C(=O)N[C@@H](CO)C(=O)N[C@@H](CO)C(=O)N[C@H](C(=O)N[C@@H](CC(N)=O)C(=O)N[C@H](C(=O)NCC(=O)N[C@@H](CO)C(=O)N[C@@H](CCCNC(=N)N)C(=O)N[C@H](C(=O)N[C@@H](Cc1ccc(O)cc1)C(N)=O)[C@@H](C)O)C(C)C)[C@@H](C)O, also called 38; compound 38)",0.249 nM
3,"K([AEEA-γGlu-C20 diacid])CNTATCATQRLANFLRHSSPNFGAIPSSTNVGRNTY-NH2 (disulfide 2-7; N-terminus assumed; SMILES CC[C@H](C)[C@H](NC(=O)[C@H](C)NC(=O)CNC(=O)[C@H](Cc1ccccc1)NC(=O)[C@H](CC(N)=O)NC(=O)[C@@H]1CCCN1C(=O)[C@H](CO)NC(=O)[C@H](CO)NC(=O)[C@H](Cc1c[nH]cn1)NC(=O)[C@H](CCCNC(=N)N)NC(=O)[C@H](CC(C)C)NC(=O)[C@H](Cc1ccccc1)NC(=O)[C@H](CC(N)=O)NC(=O)[C@H](C)NC(=O)[C@H](CC(C)C)NC(=O)[C@H](CCCNC(=N)N)NC(=O)[C@H](CCC(N)=O)NC(=O)[C@@H](NC(=O)[C@H](C)NC(=O)[C@@H]1CSSC[C@H](NC(=O)[C@@H](N)CCCCNC(=O)COCCOCCNC(=O)CC[C@H](NC(=O)CCCCCCCCCCCCCCCCCCC(=O)O)C(=O)O)C(=O)N[C@@H](CC(N)=O)C(=O)N[C@@H]([C@@H](C)O)C(=O)N[C@@H](C)C(=O)N[C@@H]([C@@H](C)O)C(=O)N1)[C@@H](C)O)C(=O)N1CCC[C@H]1C(=O)N[C@@H](CO)C(=O)N[C@@H](CO)C(=O)N[C@H](C(=O)N[C@@H](CC(N)=O)C(=O)N[C@H](C(=O)NCC(=O)N[C@@H](CCCNC(=N)N)C(=O)N[C@@H](CC(N)=O)C(=O)N[C@H](C(=O)N[C@@H](Cc1ccc(O)cc1)C(N)=O)[C@@H](C)O)C(C)C)[C@@H](C)O, also called 78; compound 78)",0.602 nM

# Results, then the binder that gave them:
row,IC50,Binder
1,0.052 nM,"K([AEEA-γGlu-C20 diacid])CNTATCATQRLANFLRHSSPNFGAIPPSTPVGSNTY-NH2 (disulfide 2-7, also called 53; compound 53)"
2,0.042 nM,"K([AEEA-γGlu-C20 diacid])CNTATCATQRLANFLRHSSPNFGAIPPSTNVGPNTY-NH2 (disulfide 2-7; N-terminus assumed; SMILES CC[C@H](C)[C@H](NC(=O)[C@H](C)NC(=O)CNC(=O)[C@H](Cc1ccccc1)NC(=O)[C@H](CC(N)=O)NC(=O)[C@@H]1CCCN1C(=O)[C@H](CO)NC(=O)[C@H](CO)NC(=O)[C@H](Cc1c[nH]cn1)NC(=O)[C@H](CCCNC(=N)N)NC(=O)[C@H](CC(C)C)NC(=O)[C@H](Cc1ccccc1)NC(=O)[C@H](CC(N)=O)NC(=O)[C@H](C)NC(=O)[C@H](CC(C)C)NC(=O)[C@H](CCCNC(=N)N)NC(=O)[C@H](CCC(N)=O)NC(=O)[C@@H](NC(=O)[C@H](C)NC(=O)[C@@H]1CSSC[C@H](NC(=O)[C@@H](N)CCCCNC(=O)COCCOCCNC(=O)CC[C@H](NC(=O)CCCCCCCCCCCCCCCCCCC(=O)O)C(=O)O)C(=O)N[C@@H](CC(N)=O)C(=O)N[C@@H]([C@@H](C)O)C(=O)N[C@@H](C)C(=O)N[C@@H]([C@@H](C)O)C(=O)N1)[C@@H](C)O)C(=O)N1CCC[C@H]1C(=O)N1CCC[C@H]1C(=O)N[C@@H](CO)C(=O)N[C@H](C(=O)N[C@@H](CC(N)=O)C(=O)N[C@H](C(=O)NCC(=O)N1CCC[C@H]1C(=O)N[C@@H](CC(N)=O)C(=O)N[C@H](C(=O)N[C@@H](Cc1ccc(O)cc1)C(N)=O)[C@@H](C)O)C(C)C)[C@@H](C)O, also called 55; compound 55)"
3,0.532 nM,"K([AEEA-γGlu-C20 diacid])CNTATCATQRLANFLRHSSPNFGAIPSSTNVGSETY-NH2 (disulfide 2-7; N-terminus assumed; SMILES CC[C@H](C)[C@H](NC(=O)[C@H](C)NC(=O)CNC(=O)[C@H](Cc1ccccc1)NC(=O)[C@H](CC(N)=O)NC(=O)[C@@H]1CCCN1C(=O)[C@H](CO)NC(=O)[C@H](CO)NC(=O)[C@H](Cc1c[nH]cn1)NC(=O)[C@H](CCCNC(=N)N)NC(=O)[C@H](CC(C)C)NC(=O)[C@H](Cc1ccccc1)NC(=O)[C@H](CC(N)=O)NC(=O)[C@H](C)NC(=O)[C@H](CC(C)C)NC(=O)[C@H](CCCNC(=N)N)NC(=O)[C@H](CCC(N)=O)NC(=O)[C@@H](NC(=O)[C@H](C)NC(=O)[C@@H]1CSSC[C@H](NC(=O)[C@@H](N)CCCCNC(=O)COCCOCCNC(=O)CC[C@H](NC(=O)CCCCCCCCCCCCCCCCCCC(=O)O)C(=O)O)C(=O)N[C@@H](CC(N)=O)C(=O)N[C@@H]([C@@H](C)O)C(=O)N[C@@H](C)C(=O)N[C@@H]([C@@H](C)O)C(=O)N1)[C@@H](C)O)C(=O)N1CCC[C@H]1C(=O)N[C@@H](CO)C(=O)N[C@@H](CO)C(=O)N[C@H](C(=O)N[C@@H](CC(N)=O)C(=O)N[C@H](C(=O)NCC(=O)N[C@@H](CO)C(=O)N[C@@H](CCC(=O)O)C(=O)N[C@H](C(=O)N[C@@H](Cc1ccc(O)cc1)C(N)=O)[C@@H](C)O)C(C)C)[C@@H](C)O, also called 26; compound 26)"
4,0.215 nM,"K([AEEA-γGlu-C20 diacid])CNTATCATQRLANFLRHSSPNFGAIPSSTNVGHNTY-NH2 (disulfide 2-7; N-terminus assumed; SMILES CC[C@H](C)[C@H](NC(=O)[C@H](C)NC(=O)CNC(=O)[C@H](Cc1ccccc1)NC(=O)[C@H](CC(N)=O)NC(=O)[C@@H]1CCCN1C(=O)[C@H](CO)NC(=O)[C@H](CO)NC(=O)[C@H](Cc1c[nH]cn1)NC(=O)[C@H](CCCNC(=N)N)NC(=O)[C@H](CC(C)C)NC(=O)[C@H](Cc1ccccc1)NC(=O)[C@H](CC(N)=O)NC(=O)[C@H](C)NC(=O)[C@H](CC(C)C)NC(=O)[C@H](CCCNC(=N)N)NC(=O)[C@H](CCC(N)=O)NC(=O)[C@@H](NC(=O)[C@H](C)NC(=O)[C@@H]1CSSC[C@H](NC(=O)[C@@H](N)CCCCNC(=O)COCCOCCNC(=O)CC[C@H](NC(=O)CCCCCCCCCCCCCCCCCCC(=O)O)C(=O)O)C(=O)N[C@@H](CC(N)=O)C(=O)N[C@@H]([C@@H](C)O)C(=O)N[C@@H](C)C(=O)N[C@@H]([C@@H](C)O)C(=O)N1)[C@@H](C)O)C(=O)N1CCC[C@H]1C(=O)N[C@@H](CO)C(=O)N[C@@H](CO)C(=O)N[C@H](C(=O)N[C@@H](CC(N)=O)C(=O)N[C@H](C(=O)NCC(=O)N[C@@H](Cc1c[nH]cn1)C(=O)N[C@@H](CC(N)=O)C(=O)N[C@H](C(=O)N[C@@H](Cc1ccc(O)cc1)C(N)=O)[C@@H](C)O)C(C)C)[C@@H](C)O, also called 76; compound 76)"
